Broadly, the Kd is the constant that tells how readily two partners part at equilibrium.

For two molecules, Kd results are on record in article PMC13585564 (2026).

Holding throughout (test): ITC
(In general: Isothermal titration calorimetry measures the heat released or taken up as one component is titrated into another.)

Test [1] addresses HSL3 ectodomain pre-incubated with CTNIP4^N60A(46–70)_(Cys–Cys) (Arabidopsis, N60A (stands in the printed letters), disulfide bond linking Cys58 and Cys68).
Test [2] deals with HSL3 ectodomain pre-incubated with CTNIP4^N60F(46–70)_(Cys–Cys) (Arabidopsis, N60F (stands in the printed letters), disulfide bond linking Cys58 and Cys68).
In test [3] the target is HSL3–CTNIP4 complex (HSL3 ectodomain pre-incubated with CTNIP4(46–70)_(Cys–Cys)) (Arabidopsis, disulfide bond linking Cys58 and Cys68).
Test [4] deals with HSL3 ectodomain pre-incubated with CTNIP4^C58A(46–63) (Arabidopsis, C58A (stands in the printed letters)).
Test [5] deals with HSL3 ectodomain pre-incubated with CTNIP4^C58A.C68A(46–70)_(linear) (Arabidopsis, C58A (stands in the printed letters) | C68A (stands in the printed letters)).

B1: SERK3 (protein)
chain: NAEGDALSALKNSLADPNKVLQSWDATLVTPCTWFHVTCNSDNSVTRVDLGNANLSGQLVMQLGQLPNLQYLELYSNNITGTIPEQLGNLTELVSLDLYLNNLSGPIPSTLGRLKKLRFLRLNNNSLSGEIPRSLTAVLTLQVLDLSNNPLTGDIPVNGSFSLFTPISFANTKLTPLPASPPPPISPTPPSPAGS
In the case of B1, the Kd in test [1] worked out at 2050 nM; in test [2], 15.1 µM; in test [3] it was 269 nM.

B2: SERK1 ectodomain (residues 24–213) (domain or fragment)
chain: ASANLEGDALHTLRVTLVDPNNVLQSWDPTLVNPCTWFHVTCNNENSVIRVDLGNAELSGHLVPELGVLKNLQYLELYSNNITGPIPSNLGNLTNLVSLDLYLNSFSGPIPESLGKLSKLRFLRLNNNSLTGSIPMSLTNITTLQVLDLSNNRLSGSVPDNGSFSLFTPISFANNLDLCGPVTSHPCPGS
For the molecule B2, the Kd was 8.21 µM in test [4], 458 nM in test [3] and 2540 nM in test [5].
